Assay in all cases: FRET or BRET; FRET efficiency by flow cytometry in co-transfected HEK-293T cells 24 h post-transfection; donor mCerulean fusion, acceptor mEYFP fusion; Cer alone as negative control
A general note: BRET reads energy transfer from a luciferase to a nearby fluorophore.

Test [1] has as its target EYFP-Tsn (Drosophila melanogaster).
Test [2] concerns the target EYFP-Pen (Drosophila melanogaster) (UniProt P52295).
For test [3], the target named is EYFP-Hsp26 (Drosophila melanogaster) (UniProt P02517).

FRET efficiency data for 1 substance are collected here from PMC9037272.

UniProt P52295, sequence (P52295 whole entry): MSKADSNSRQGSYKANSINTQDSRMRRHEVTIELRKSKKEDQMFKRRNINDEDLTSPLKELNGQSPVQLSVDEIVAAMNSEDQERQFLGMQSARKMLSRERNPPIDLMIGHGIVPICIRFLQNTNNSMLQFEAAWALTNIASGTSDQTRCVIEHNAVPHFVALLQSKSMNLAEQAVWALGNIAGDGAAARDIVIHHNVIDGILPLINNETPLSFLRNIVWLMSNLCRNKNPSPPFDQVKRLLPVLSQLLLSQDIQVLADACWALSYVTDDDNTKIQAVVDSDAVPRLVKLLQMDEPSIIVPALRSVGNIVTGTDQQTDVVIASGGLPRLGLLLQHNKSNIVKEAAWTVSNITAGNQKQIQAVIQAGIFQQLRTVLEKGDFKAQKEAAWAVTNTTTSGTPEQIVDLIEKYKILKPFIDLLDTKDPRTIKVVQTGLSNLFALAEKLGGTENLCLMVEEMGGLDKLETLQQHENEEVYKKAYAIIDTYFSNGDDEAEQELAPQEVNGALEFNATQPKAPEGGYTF
UniProt P02517, sequence (P02517 whole entry): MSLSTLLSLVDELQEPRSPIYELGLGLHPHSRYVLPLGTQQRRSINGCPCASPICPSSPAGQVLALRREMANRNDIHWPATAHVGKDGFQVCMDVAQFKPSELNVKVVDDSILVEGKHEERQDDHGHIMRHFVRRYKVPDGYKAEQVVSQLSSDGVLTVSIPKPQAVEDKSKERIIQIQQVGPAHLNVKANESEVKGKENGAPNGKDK

With “Cer-NtFT4 (mCerulean fusion of NtFT4) (natural protein)”, the FRET efficiency was found to be 3.8% in test [1], 7.9% in test [2] and 13.8% in test [3].
